Columns and labels:
GST-ZZS05 fusion protein = GST-ZZS05 fusion protein (UniProt P08515 1-218 = GST); assay: Biacore SPR, 25 C; GST-antigen captured on anti-GST CM5 chip, antibody injected
GST-ZZS01 fusion protein [1] = target: T1, GST-ZZS01 fusion protein (UniProt P08515 1-218 = GST); assay: as above
GST-ZZS01 fusion protein [2] = target: T1, GST-ZZS01 fusion protein; assay: Biacore SPR as in Example 3.3

T1 sequence (P08515 1-218, tags or fused parts left off): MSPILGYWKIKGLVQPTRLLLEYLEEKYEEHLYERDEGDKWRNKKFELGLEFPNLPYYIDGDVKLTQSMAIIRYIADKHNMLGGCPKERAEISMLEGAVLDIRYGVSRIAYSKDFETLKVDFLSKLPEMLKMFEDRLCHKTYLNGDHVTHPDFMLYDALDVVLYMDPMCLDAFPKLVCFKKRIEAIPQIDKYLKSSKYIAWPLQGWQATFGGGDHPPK
GST-ZZS05 fusion protein, sequence (P08515 1-218, tags or fused parts left off): as above

Binder | Kd (GST-ZZS01 fusion protein [2]) [nM] | also measured
murine monoclonal antibody F11 (antibody, V domains shown, also called F11 (anti-zzs05)) VH: EVQLQQSGPELVKPGASVKISCKTSGYTFTEYTMHWVKQSHGKTLEWIGGIYPNNSGTRYNQKFRGKATLTADKSSSTAYMELRSLTTEDSAVYYCHRYELYWYFDVWGAGTTVTVSS VL: DIVLTQSPASLAVSLGQRATISCRASKSVSTAGYSYMHWYQQKPGQPPKLLIYLTSNLESGVPARFSGSGSGTDFTLNIHPVEEEDAATYYCQHSREVPYTFGGGTKLEIKR | – | Kd (GST-ZZS05 fusion protein): 6.9 nM; koff (GST-ZZS05 fusion protein): 0.000949 s⁻¹; kon (GST-ZZS05 fusion protein): 137000 M⁻¹ s⁻¹
murine monoclonal antibody 1D6 (antibody, V domains shown, also called 106 (anti-zzs01); ID6) VH: QIQLVQSGPELKKPGETVKISCKASGYTFTNYAVNWVIQAPGKGLKWMGWINAYTGEPTYADDFKGRFAFSLETSASTAYLQINNLKNEDMGIYFCARGGYDTYALDYWGQGTSVTVSS VL: not shown | – | Kd (GST-ZZS01 fusion protein [1]): 4.82 nM; koff (GST-ZZS01 fusion protein [1]): 1.19e-05 s⁻¹; kon (GST-ZZS01 fusion protein [1]): 2480 M⁻¹ s⁻¹
h12 (antibody, V domains shown) VH: QVQLVESGGGLVKPGGSLRLSCAASGFSFSDSYMSWLRQAPGKGLEWVSYISSSSSYTKYTDSVKGRFTISRDNAKNSLYLQMSSLRAEDTAVYYCAREGSPGGQGTLVTVSS VL: DVVMTQSPLSLPVTLGQPASFSCRSSQSLVFTDGNTFLSWFLQRPGQSPRRLIYRVSNRDPGVPDRFSGSGSGTDFTLKISRVEAEDVGVYYCMQGTQWPFTFGPGTKVDIKR | 6.03 | –
h25 (antibody, V domains shown) VH: EVQLVESGGGLVKRGGSLRLSCAASGFTFSSYSMHWVRQAPGKGLEWVSSISSRSTYIYYADSVKGRFTISRDNAKNSLYLQMNSLSAEDTAVYYCARGSGSYYVFDYWGQGTLVTVSS VL: ELVMTQSPATLSVSPGERATLSCRASQSVSSNLAWYQQKPGQAPRLLIYGASSRATNIPARFSGSGSGTEFTLTISSLQSEDFAVYYCQQYDNWPMYSFGQGTKLEIKR | 0.32 | –
h1 (antibody, V domains shown) VH: EVQLVESGGGLVKPGGSLRLSCAASGFTFSSYSMSWVRQAPGKGLEWVSSISSRSNYIYYADSVKGRFTISRDNAKNSLYLQVNSLRAEDTAVYYCARGSGSYYVFDYWGQGTLVTVSS VL: EIVMTQSPATLSVSPGDRATLSCRASQSISSDLAWYQQKPGQAPRLLIYAASTRATGFPARFSGSGSGTEFTLTISSLQPEDFAVYYCQQYNNWPMYAFGQGTKLEIKR | 0.289 | –
h27 (antibody, V domains shown) VH: EVQLVESGGGLVKPGGSLRLSCAASGFTFSSYSMSWVRQAPGKGLEWVSSISSRSNYIYYADSVKGRITISRDNAKNSLYLQMNSLRAEDTAVYYCARGSGSYYVFDYWGQGTLVTVSS VL: ELVMTQSPATLSMSPGDRATLSCRASQSIRSDLAWYQQKPGQAPRLLIYDASTRATGIPARFSGSGSGTEFTLSISSLQSEDFAVYYCQQYNNWPMYTFGQGTKLEIKR | 0.16 | –
h4 (antibody, V domains shown) VH: QVQLVESGGGLVKPGGSLRLSCAASGFTFSDHYMSWIRQTPGKGLEWVSYISSSGTYTNYADSVKGRFIISRDNAKNSLFLQMNSLRAEDTAVYYCAREGSPGGQGTLVTVSS VL: DVVMTQSPLSLPVTLGQPASISCRSSQSLVFSDGNTYLNWFQQRPGQSPRRLIYKVSDRDPGVPERFSGSGSGTDFTLKISRVEAEDIGVYYCMQGSHWPFTFGPGTKVDIKR | 2.86 | –
h22 (antibody, V domains shown) VH: QVQLVESGGGLVKPGGSLRLSCAASGFTFSAHYMSWIRQAPGKGLEWVSYISPSSSYTVYADSVKGRFTISRDNAKNSLFLQMNSLRAEDTAVYYCAREGSPGGQGTLVTVSS VL: DVVMTQSPLSLPVTLGQPASISCRSSQNLVDSDGNTYLSWFQQRPGQSPRRLIYKVSDRDSGVPDRFSGSGSGTDFTLKINRVEAEDIGIYYCMQGSHWPFTFGPGTKVDIKR | 0.104 | –
h2 (antibody, V domains shown) VH: QVQLVESGGGLVKPGGSLRLSCAASGFTFSAHYMSWIRQAPGKGLEWVSYISPSSSYTVYADSVKGRFTISRDNAKNSLFLQMNSLRAEDTAVYYCAREGSPGGQGTLVTVSS VL: DVVMTQSPLSLPVTLGQPASISCRPSQSLVDSDGNTYLSWFQQRPGQSPRRLIYKVSDRDSGVPDRFSGSGSVTDFTLKISRVEAEDVGIYYCMQGTHWPFTFGPGTKVDIKR | 5.24 | –
h19 (antibody, V domains shown) VH: QVQLVESGGGLVKPGGSLRLSCAASGFSFSDSYMSWIRQAPGKGLEWVSYISSSSSYTNYADSVKGRFTISRDNAKNSLYLQMNSLRVEDTAVYYCAREGSPGGQGTLVTVSS VL: DVVLTQSPLSLPVTLGQPASISCRSSQSLVDSDGNTYLSWFQQRPGQSPRRLIYRVSNRDSGVPDRFSGSGSGTDFTLKISRVEAEDVGVYYCMQGTHWPFTFGPGTKVDIKR | 3.53 | –
h14 (antibody, V domains shown) VH: QVQLVESGGGLVEPGGSLRLSCAASGFTFSDHYMSWIRQAPGRGLEWVSYISNSGGYTNYADSVKGRFTISRDNAKNSLYLQMNSLRAEDTAVYYCAREGSPGGQGTLVTVSS VL: DVVMTQSPLSLPVTLGQPASMSCRSSQSLVDSDGNTYLSWFQQRPGQSPRRLIYKVSDRDSGVPDRFSGGGSGTDFTLKISRVEAEDVGIYYCMQGTRWPFTFGPGTKVDIKR | 4.39 | –
h21 (antibody, V domains shown) VH: QVQLVESGGGLVKPGGSLRLSCAASGFTFSAHYMSWIRQAPGKGLEWVSYISPSSSYTVYADSVKGRFTISRDNAKNSLFLQMNSLRAEDTAVYYCAREGSPGGQGTLVTVSS VL: DVVMTQSPLSLPVTLGQPASISCRSTQSLVDSDGNTYLSWFQQRPGQSPRRLIYKVSDRDSGVPDRFSGSGSGTDFTLKISRVEAEDIGIYYCMQGTHWPFTFGPGTKVDIKR | 1.48 | –
18 (antibody, V domains shown) VH: QVQLVESGGGLVKPGGSLRLSCAASGFTFSASYMSWIRQAPGKGLEWVSYISSSSTYTNYADSVKGRFTISRDNAKNSLYLQMDSLRAEDTAMYFCAREGSPGGQGTLVTVSS VL: DVVMTQSPLSLPVTLGQSASISCRSSQSLVYSDGDTFLSWFQQRPGQSPRRLIYMVSNRDPGVPDRFSGSGSGTDFTLKISRVEAEDVGIYYCMQGTNWPFTFGPGTRVDIKR | 3.46 | –
h5 (antibody, V domains shown) VH: QVQLVESGGGLVKPGGSLRLSCAASGFTFSDHYMSWIRQAPGKGLEWVAYISSSSTYTKYGDSVKGRFTISRDNAKNSLYLQMNSLRAEDTAVYYCAREGSPGGQGTLVTVSS VL: DVVMTQSPLSLPVTLGQPASISCRSSQSLVFSDGNTYLSWFQQRPGQSPRRLIFKVSDRDSGVPDRFSGSGSGTDFTLKISRMEAEDVGVYYCMQGTQWPFTFGPGTKVDIKR | 10.1 | –
h11 (antibody, V domains shown) VH: QVQLVESGGGLVKPGGSLRLSCEASGFTFSAHYMSWIRQAPGKGLEYVSYISGSSSYTNYVDSVKGRFTISRDNAKNSLYLQMNSLRVEDTAVYYCAREGSPGGQGTLVTVSS VL: DVVLTQSPLSLPVTLGQPASISCRSSQSLVDSDGNTYLSWFHQRPGQSPRRLIYKVSDRDSGVPDRFSGSGSGTDFTLKISRVEAEDVGVYYCMEGTHWPFTFGPGTKVDIKR | 0.652 | –
h20 (antibody, V domains shown) VH: QVQLVESGGGLVKPGGSLRLSCAASGFSFSDSYMSWIRQAPGKGLEWVSYISSSSSYTNYVDSVKGRFTISRDNAKNSLYLQMNSLRVEDTAVYYCAREGSPGGQGTLVTVSS VL: DVVMTQSPLSLPVTLGQPASISCRSSQSLVDSDGNTYLSWFQQRPGQSPRRLIYRVSNRDSGVPDRFSGSGSGTDFTLKISRVEAEDVGVYYCMQGTHWPFTFGPGTKVDIRR | 2 | –
h15 (antibody, V domains shown) VH: QVQLVESGGGLVRPGGSLRLSCAASGFTFSDHYMSWIRQAPGKGLEWVSYISGSSSYTKYADSVKGRFTISRDNAKNSLYLQMNSLRAEDTAVYYCAREGSPGGQGTLVTVSS VL: DVVLTQSPLSLPVTLGQPASISCRSSQSLVFSDGNTFLAWFQQRPGQSPRRLIYRISNRDSGVPDRFSGSGSDTDFTLKISRVEAEDVGVYYCMQGTQWPFTFGPGTKVDIKR | 5.78 | –
h17 (antibody, V domains shown) VH: QVQLVESGGGLVEPGGSLRLSCAASGFTFSDHYMSWIRQAPGRGLEWVSYISNSGGYTNYADSVKGRFTISRDNAKNSLYLQMNSLRAEDTAVYYCAREGSPGGQGTLVTVSS VL: DVVMTQSPLSLPVTLGQPASMSCRSSQSLVDSDGNTYLSWFQQRPGQSPRRLIYKVSDRDSGVPDRFSGGGSGTDFTLKIRRVEAEDVGIYYCMQGTRWPFTFGPGTKVDIKR | 3.18 | –
h10 (antibody, V domains shown) VH: QVQLVESGGGLVKPGGSLRLSCEASGFTFSAHYMSWIRQAPGKGLEYVSYISSSSSYTNYVDSVKGRFTISRDNAKNSLYLQMNSLRVEDTAVYYCAREGSPGGQGTLVTVSS VL: DVVLTQSPLSLPVTLGQPASISCRSSQSLVDSDGNTYLSWFHQRPGQSPRRLIYKVSDRDSGVPDRFSGSGSGTDFTLKISRVEAEDVGVYYCMEGTHWPFTFGPGTKVDIKR | 0.0847 | –
h13 (antibody, V domains shown) VH: QVQLVESGGGLVKPGGSLRLSCAASGFSFSDSYMSWLRQAPGKGLEWVSYISSSSSYTKYADSVKGRFTISRDNAKNSLYLQMNSLRAEDTAVYYCAREGSPGGQGTLVTVSS VL: DVVLTQSPLSLPVTLGQPASFSCRSSQSLVFTDGNTFLSWFLQRPGQSPRRLIYRVSNRDPGVPDRFSGSGSGTDFTLKISRVEAEDVGVYYCMQGTQWPFTFGPGTKVDIKR | 3.66 | –
h16 (antibody, V domains shown) VH: QVQLVESGGGLVKPGGSLRLSCEASGFTFSAHYMSWIRQAPGKGLEYVSYISSSSSYTNYADSVKGRFTISRDNAKNSLYLQMNSLRAEDTAVYYCAREGSPGGQGTLVTVSS VL: DVVLTQSPLSLPVTLGQPASISCRSSQSLVDSDGNTYLSWFHQRPGQSPRRLIYKVSDRDSGVPDRFSGSGSGTDFTLKISRVEAEDVGVYYCMEGTHWPFTFGPGTKVDIKR | 2.17 | –

From patent EP4752156A1 (Shanghai Yunxuan Biotechnologies, Inc., dated 2026)
